Source: US20180282402A1 (ATYR PHARMA, published 2018)
One block for each binder: values may come before it. No end group written: not given here.

What was measured:
[1] = molecular target: T1, NRP1-His (R&D Systems #3870-N1) (human, UniProt O14786-2 22-644); experiment: SPR: NRP1 as analyte over immobilized Fc-HRS(2-60)
T1 construct: not shown: His tag

[2] = molecular target: T2, Mouse PLXNA1-His (R&D Systems #4309-PA) (mouse, UniProt P70206 28-1242, limits assumed); experiment: SPR: mouse Plexin A1 as analyte over immobilized Fc-HRS(2-60)
T2 construct: also called mouse Plexin A1; not shown: His tag
T2 sequence (P70206 28-1242 limits assumed): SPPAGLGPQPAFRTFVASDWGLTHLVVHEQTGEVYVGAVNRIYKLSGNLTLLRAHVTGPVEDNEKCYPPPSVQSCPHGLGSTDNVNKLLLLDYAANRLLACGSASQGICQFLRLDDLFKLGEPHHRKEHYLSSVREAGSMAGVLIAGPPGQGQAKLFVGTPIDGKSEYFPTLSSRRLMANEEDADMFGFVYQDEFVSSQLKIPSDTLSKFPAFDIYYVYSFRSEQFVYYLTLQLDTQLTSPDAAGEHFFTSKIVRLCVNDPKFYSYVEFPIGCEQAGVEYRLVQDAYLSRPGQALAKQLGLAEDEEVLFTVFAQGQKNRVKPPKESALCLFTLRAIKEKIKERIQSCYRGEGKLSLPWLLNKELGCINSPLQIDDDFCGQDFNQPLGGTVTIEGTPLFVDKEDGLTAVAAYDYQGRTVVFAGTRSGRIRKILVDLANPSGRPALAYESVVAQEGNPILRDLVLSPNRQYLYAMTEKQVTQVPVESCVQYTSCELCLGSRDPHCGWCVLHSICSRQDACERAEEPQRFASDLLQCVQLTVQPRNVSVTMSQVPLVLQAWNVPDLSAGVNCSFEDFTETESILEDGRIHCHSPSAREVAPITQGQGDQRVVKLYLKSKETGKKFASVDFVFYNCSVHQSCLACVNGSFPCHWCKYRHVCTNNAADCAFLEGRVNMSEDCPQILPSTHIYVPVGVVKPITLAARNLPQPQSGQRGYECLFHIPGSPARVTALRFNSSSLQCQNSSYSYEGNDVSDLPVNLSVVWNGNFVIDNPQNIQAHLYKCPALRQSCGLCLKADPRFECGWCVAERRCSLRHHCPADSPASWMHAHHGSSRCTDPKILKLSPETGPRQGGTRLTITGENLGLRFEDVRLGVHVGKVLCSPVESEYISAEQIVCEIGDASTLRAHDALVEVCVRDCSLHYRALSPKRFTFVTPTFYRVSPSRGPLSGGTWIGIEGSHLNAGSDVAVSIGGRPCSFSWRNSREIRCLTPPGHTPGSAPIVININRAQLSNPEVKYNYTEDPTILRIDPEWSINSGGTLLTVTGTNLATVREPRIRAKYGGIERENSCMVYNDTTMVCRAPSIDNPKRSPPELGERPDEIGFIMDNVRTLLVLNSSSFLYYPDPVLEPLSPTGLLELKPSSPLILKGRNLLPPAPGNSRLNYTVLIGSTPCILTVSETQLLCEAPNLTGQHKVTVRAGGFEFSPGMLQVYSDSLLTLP

[3] = molecular target: T3, Rat NRP2-Fc-His (R&D Systems #567-N2) (rat, UniProt O35276 23-858, limits assumed); experiment: SPR: 50 nM rat NRP2 as analyte over immobilized Fc-HRS(2-60) [panel A]
T3 construct: not shown: Fc and His tag
T3 sequence (looked up): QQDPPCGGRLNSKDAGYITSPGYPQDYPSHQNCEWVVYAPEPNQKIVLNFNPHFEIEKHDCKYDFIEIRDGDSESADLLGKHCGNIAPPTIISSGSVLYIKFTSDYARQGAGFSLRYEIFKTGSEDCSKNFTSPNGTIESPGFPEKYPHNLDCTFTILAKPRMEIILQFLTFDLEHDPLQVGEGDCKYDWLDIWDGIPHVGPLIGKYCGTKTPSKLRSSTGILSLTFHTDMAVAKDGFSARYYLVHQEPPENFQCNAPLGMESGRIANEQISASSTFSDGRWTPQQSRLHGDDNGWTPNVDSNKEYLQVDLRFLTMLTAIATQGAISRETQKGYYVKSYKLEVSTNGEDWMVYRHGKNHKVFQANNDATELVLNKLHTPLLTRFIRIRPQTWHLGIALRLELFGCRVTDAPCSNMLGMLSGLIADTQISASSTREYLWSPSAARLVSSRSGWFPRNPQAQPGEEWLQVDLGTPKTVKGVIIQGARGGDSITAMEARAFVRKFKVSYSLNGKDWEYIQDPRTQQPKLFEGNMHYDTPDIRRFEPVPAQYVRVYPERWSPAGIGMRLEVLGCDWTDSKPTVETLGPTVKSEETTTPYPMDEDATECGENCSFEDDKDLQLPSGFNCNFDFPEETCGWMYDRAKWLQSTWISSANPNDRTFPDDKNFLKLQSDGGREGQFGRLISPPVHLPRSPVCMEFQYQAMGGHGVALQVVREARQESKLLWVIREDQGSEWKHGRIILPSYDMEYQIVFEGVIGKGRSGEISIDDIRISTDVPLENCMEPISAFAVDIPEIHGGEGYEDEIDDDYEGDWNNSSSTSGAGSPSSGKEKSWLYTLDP

[4] = molecular target: T4, Neuropilin 2A (NRP2A, NM_003872.2) on cells (human, UniProt O60462 23-931); experiment: Retrogenix cell microarray on HEK293 cells, sequential staining, 20 ug/ml test protein, AF647 anti-human IgG Fc detection
T4 construct: Used here for the Retrogenix HEK293 array and for the untagged NRP2v2 stably expressed on Expi293 cells; also called NRP2 variant 2; NRP2v2
Experimental: The detection antibody was used at screening concentrations of 2, 5, and 20 μg/ml, as more fully described below.
Primary hits (duplicate spots) were identified by analyzing fluorescence intensity in the AlexaFluor 647 and ZsGreen1 emission channels using the ImageQuant system, following standard fluorescent methodology. […] Additionally all vectors encoding all hits, plus control vectors, were spotted in duplicate on new slides, and used to reverse transfect human HEK293 cells as before.

[5] = molecular target: T5, NRP2a-GFP fusion protein on HEK293T cells (human, UniProt O60462 23-931); experiment: immunofluorescence microscopy (IN Cell Analyzer) on fixed HEK293T cells expressing NRP2v2-GFP, GFP-bright gate; Fc-HRS(2-60) titrated in 2-fold steps and complexed with anti-Fc-PE [panel A]
T5 construct: Transiently expressed; cells fixed before staining; also called NRP2v2-GFP; cell-expressed NRP2a; not shown: GFP (Origene RG220706, NM_003872 ORF clone)
Experimental: HEK293T cells previously transfected with NRP2v2-GFP were passed the night before staining to 96 well Greiner Clear flat bottomed Microplates pre-coated with collagen coating solution. Supernatants were removed and cells were washed 1 time with binding buffer. Cells were then fixed with 50 μL of 3.7% methanol-free formaldehyde for 20 minutes at room temperature. Cells were washed 2× with binding buffer and then blocked with 100 μL of blocking buffer for 1 hour at room temperature. The cells were then washed one time with binding buffer and then incubated with 50 μL of staining complex overnight at 4 degrees Celsius. Cells were then washed 3 times with binding buffer, and then nuclei were counter stained with […] Hoechst diluted in DPBS for 10 minutes at room temperature. The Hoechst stain was replaced with 1×PBS and subsequently read on an IN Cell Analyzer 2200. 20× images were acquired and analyzed using In Cell Analyzer 1000 Workstation software. Segmentation of the cell mask was achieved using the GFP channel, and the average PE signal intensity was determined within this mask above a threshold intensity of 5000 (termed GFP Bright cells).

[6] = molecular target: T6, NRP2-Fc (R&D Systems #2215-N2) (human, UniProt O60462 23-864, limits assumed); experiment: SPR: NRP2 as analyte over immobilized GARS Fc-WHEP [panel B]
T6 construct: Bought reagent used as NRP2 in the SPR experiments; also called human NRP2; Neuropilin 2; not shown: Fc

[7] = molecular target: T6, NRP2-Fc (R&D Systems #2215-N2); experiment: SPR: NRP2 as analyte over immobilized MARS Fc-WHEP [panel C]

binding result [1]: no binding (tested: 50 nM)
binding result [2]: no binding (tested: 50 nM)
binding result [3]: binds
binding result [4]: binds
binding result [5]: binds
B1: Fc-HRS(2-60) (Fc fusion)
chain: {human IgG Fc}-AERAALEELVKLQGERVRGLKQQKASAELIEEEVAKLLKLKAQLGPDESKQKFVLKTPK
modifications: also: linker to Fc not given here, biotinylated for flow assay (maleimide-PEG11-biotin, ~3.35 per molecule)
notes: Fc at the N-terminus, HRS residues 2-60 (WHEP domain) at the C-terminus; in the imaging assay pre-complexed with anti-Fc-PE; also called HRS-Fc fusion protein construct; ATYR1923; not shown: human IgG Fc region

binding result [6]: no binding (tested: 20 nM)
B2: GARS Fc-WHEP (Fc fusion, UniProt P41250 63-119, looked up)
chain: VLAPLRLAVRQQGDLVRKLKEDKAPQVDVDKAVAELKARKRVLEAKELALQPKDDIV
notes: domain: WHEP domain; not shown: Fc domain

binding result [7]: no binding (tested: 20 nM)
B3: MARS Fc-WHEP (Fc fusion, UniProt P56192 841-897, looked up)
chain: QIQALMDEVTKQGNIVRELKAQKADKNEVAAEVAKLLDLKKQLAVAEGKPPEAPKGK
notes: as for B2
